According to article PMC5415106:

B1: GST-Dpb11-wild-type [budding yeast] / Cdc45 (purified, radiolabelled) [budding yeast] (parent)
chain 1: MKPFQGITFCPTAINNEILAKKISKKIIKLGGIFSKDLTRQVNVLVVGSTTNTNKFKFAVKHRFDIIFIDIQAIDDIYQLWLSGENILPDSNTATMTGSTYEMLKILYRRFSFKYLHNFNIFIGRITDTNITSIDSLVRSIKKLGCSSYNYQNFVIKDTSSHNDDDDQGQNGQISIFVTDTLLGARVNAAIEQNIPIVHFKWILDCQKRSALLPYDPYYLLPNIKDLPYDSIGSNSCDCWDKINTTFPTNIDAQSSLQRQQSSSTLTPSLPKTSSLLNKFKPKGEKIWDKAMSLQQHSKTNFSVLGQSPLSINNKQEDLSDNSTLIFKNCAFIIHHIFPGNHRSILTKIVVQNGGKIETSYLSGIYDHSYYIIPSNKALDSFNDLPEIIDDNDGIVTEFFIERCLYYQKLLHPIDLWSKPFLSTIEFQVSSSSKLLHHEFSSSPFLNVTITGFSGVELLHLTKVLNLLKPMGINYVEYLNKSTDILLINLAALPSIPKTHPLWSNEFSDLFTQFCINNNNDDPGDNNRKDFQNNSILRNSMKRKIEYIKKFHSIPVVTPAFIFKLLSAASGENNEIFLNNIKWCIICPRGHKDDFKCKIKKPYYTSISSEKKYQNNDPKIDKTILLKRNNSSLSEHSMKDTKNELLQKIRETDSGRKKRSVSSSIMDVSSERQMPDTKRIKLESLPKNFVPKQIKRTTSWGTIMSENVPTEQPTAISNPEEIPRTEEVSHTQVTYGSIQDKKRTASLEKPMRRQTRNQTKELDS
chain 2: MYYGISQFSEAYNKILRNSSSHSSCQLVIFVSCLNIDALCATKMLSLLFKKQLVQSQIVPIFGYSELRRHYSQLDDNINSLLLVGFGGVIDLEAFLEIDPQEYVIDTDEKSGEQSFRRDIYVLDAHRPWNLDNIFGSQIIQCFDDGTVDDTLGEQKEAYYKLLELDEESGDDELSGDENDNNGGDDEATDADEVTDEDEEDEDETISNKRGNSSIGPNDLSKRKQRKKQIHEYEGVLEEYYSQGTTVVNSISAQIYSLLSAIGETNLSNLWLNILGTTSLDIAYAQVYNRLYPLLQDEVKRLTPSSRNSVKTPDTLTLNIQPDYYLFLLRHSSLYDSFYYSNYVNAKLSLWNENGKKRLHKMFARMGIPLSTAQETWLYMDHSIKRELGIIFDKNLDRYGLQDIIRDGFVRTLGYRGSISASEFVEALTALLEVGNSTDKDSVKINNDNNDDTDGEEEEDNSAQKLTNLRKRWVSNFWLSWDALDDRKVELLNRGIQLAQDLQRAIFNTGVAILEKKLIKHLRIYRLCVLQDGPDLDLYRNPLTLLRLGNWLIECCAESEDKQLLPMVLASIDENTDTYLVAGLTPRYPRGLDTIHTKKPILNNFSMAFQQITAETDAKVRIDNFESSIIEIRREDLSPFLEKLTLSGLL
B2: GST-Dpb11-wild-type [budding yeast] / PKA-Sld2T84D [modified: 32P-phosphate on the artificial PKA site; 32P-phosphate on the artificial PKA site] [budding yeast] (parent)
chain 1: B1 chain 1
chain 2: MYSFELDKLKIELKTWEHDFIDKNKREPTRDDIKSLRTVRQMYKQYSTLKKKQSLQRQKVDTQESVELPAHKKDHDEVVEIGPDPQVYGKAISIFDMNLSPIKPIYMTFTNNIDVNNDNSKTISNESSPRKTILLKSSPADRTLVAEPISSVKRQLNFQMLNASSTRTPTSSPCKNRNGKLVEIKKCSPTINPPLESGKPSGYYGPNSPLKLDEENIHLNISLNSSTKRRLQIAYPSLQKTPSKDQADISTSFSPSPLIRRPLTKSLIELAREHTEIVKEFGVLQEEDIEEEEEGEEGENGYDEKNHEDDFGLEDELIRPKVVKDIFQEDDDNDDSQAREDTFIRKRPKRRKVIRRLRDNDPETETAGFERDVHKELVKLKRRKVAEFLGSTSQISDTEFEHDPEASSGVVSSEQKPTAKRKGRKKYNLVSNNFRRLKLPKKNRFSNGRWGRR

Assays:
[1] = variants of: B1; test: GST pull-down, phosphorimaging; details: with Cdc45 (purified, radiolabelled) [budding yeast], 10 pmoles GST-Dpb11, read off a plot
[2] = variants of: B2; test: GST pull-down, phosphorimaging; details: with PKA-Sld2T84D [modified: 32P-phosphate on the artificial PKA site

response ([1]; 1 pmole Cdc45 input, parent: 0.11)	response ([1]; 3 pmoles Cdc45 input, parent: 0.44)	response ([1]; 10 pmoles Cdc45 input, parent: 0.89)	response ([2]; 10 pmoles GST-Dpb11, 1 pmole Sld2T84D input, parent: 0.28, read off a plot)	response ([2]; 10 pmoles GST-Dpb11, 3 pmoles Sld2T84D input, parent: 0.64, read off a plot)	response ([2]; 10 pmoles GST-Dpb11, 10 pmoles Sld2T84D input, parent: 1.6, read off a plot)	Variant
0.1 pmol	0.42 pmol	0.85 pmol	–	–	–	chain 1 K463E K469E R538E K549E
–	–	–	0.3 pmol	0.72 pmol	1.7 pmol	chain 1 K463E K469E R538E K549E
